The results in this text go back to patent US20190284258A1, “HAEMADIPSA SYLVESTRIS ANTITHROMBOTIC PEPTIDE SYLVESTIN AND USE THEREOF” (priority 2016, published 2019).

In the test the target is FXIIa. Briefly: enzyme inhibition kinetics, chromogenic substrate, OD 405 nm.

Usually Ki stands for a measure of affinity in units of concentration, obtained from inhibition or displacement.

Chain of FXIIa (P00748 20-372, chain 1 of 2): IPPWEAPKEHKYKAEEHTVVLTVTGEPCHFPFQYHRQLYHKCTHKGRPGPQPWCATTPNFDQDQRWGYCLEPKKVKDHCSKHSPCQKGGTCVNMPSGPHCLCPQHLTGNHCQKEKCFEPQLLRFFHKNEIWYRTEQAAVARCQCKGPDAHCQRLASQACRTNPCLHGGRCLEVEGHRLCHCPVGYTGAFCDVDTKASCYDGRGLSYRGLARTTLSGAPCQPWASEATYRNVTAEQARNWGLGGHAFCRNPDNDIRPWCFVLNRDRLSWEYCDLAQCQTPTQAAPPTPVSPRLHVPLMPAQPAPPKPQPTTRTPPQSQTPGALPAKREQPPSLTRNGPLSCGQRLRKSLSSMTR
Chain of FXIIa (P00748 373-615, chain 2 of 2): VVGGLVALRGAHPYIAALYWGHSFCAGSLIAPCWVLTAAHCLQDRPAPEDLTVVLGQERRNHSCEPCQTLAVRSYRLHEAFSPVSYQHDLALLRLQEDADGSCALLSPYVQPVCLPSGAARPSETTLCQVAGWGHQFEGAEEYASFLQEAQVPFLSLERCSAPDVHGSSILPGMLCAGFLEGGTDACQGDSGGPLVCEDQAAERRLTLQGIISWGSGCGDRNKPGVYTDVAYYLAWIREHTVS

In turn, “Haemadipsa sylvestris antithrombotic peptide Sylvestin” showed a Ki of 2900 nM. This counts as single-digit micromolar.
